In patent US9988424 (DUKE UNIVERSITY, dated 2018):
Where two headings read alike, the source gives them in different places.

Experiments:
Experiment in all cases: ELISA, OD405 at 10 ug/ml
AE.con gp140CF [1] = biological target: AE.con gp140CF
AE.97CNG2XF gp140CF [2] = biological target: T1, AE.97CNG2XF gp140CF (HIV-1)
T1 construct: also called E.97CNGX2F gp140CF

G.con gp140CF [3] = biological target: G.con gp140CF
B.9021 gp140C = B.9021 gp140C (HIV-1)
gp70 B.CaseA2 V1/V2 [4] = biological target: T2, gp70 B.CaseA2 V1/V2 (HIV-1 V1V2 on murine leukemia virus gp70)
T2 construct: also called B.gp70CaseA2 V1/V2; gp70 B.CaseAV1V2
T2 chain: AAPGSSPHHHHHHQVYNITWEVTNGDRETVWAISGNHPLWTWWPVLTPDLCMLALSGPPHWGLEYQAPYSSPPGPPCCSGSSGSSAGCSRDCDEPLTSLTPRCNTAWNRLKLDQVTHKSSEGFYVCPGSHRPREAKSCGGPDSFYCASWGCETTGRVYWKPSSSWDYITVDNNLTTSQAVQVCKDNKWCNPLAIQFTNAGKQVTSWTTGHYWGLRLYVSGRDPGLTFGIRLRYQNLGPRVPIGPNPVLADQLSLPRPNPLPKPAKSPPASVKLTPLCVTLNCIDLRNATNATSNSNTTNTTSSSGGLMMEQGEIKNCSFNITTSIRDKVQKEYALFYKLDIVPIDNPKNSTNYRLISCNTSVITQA

SIV CPZ US-1 gp140CF [5] = biological target: T3, SIV CPZ US-1 gp140CF (SIVcpz)
T3 construct: also called US-1 SIVCPZ gp140CF
T3 chain: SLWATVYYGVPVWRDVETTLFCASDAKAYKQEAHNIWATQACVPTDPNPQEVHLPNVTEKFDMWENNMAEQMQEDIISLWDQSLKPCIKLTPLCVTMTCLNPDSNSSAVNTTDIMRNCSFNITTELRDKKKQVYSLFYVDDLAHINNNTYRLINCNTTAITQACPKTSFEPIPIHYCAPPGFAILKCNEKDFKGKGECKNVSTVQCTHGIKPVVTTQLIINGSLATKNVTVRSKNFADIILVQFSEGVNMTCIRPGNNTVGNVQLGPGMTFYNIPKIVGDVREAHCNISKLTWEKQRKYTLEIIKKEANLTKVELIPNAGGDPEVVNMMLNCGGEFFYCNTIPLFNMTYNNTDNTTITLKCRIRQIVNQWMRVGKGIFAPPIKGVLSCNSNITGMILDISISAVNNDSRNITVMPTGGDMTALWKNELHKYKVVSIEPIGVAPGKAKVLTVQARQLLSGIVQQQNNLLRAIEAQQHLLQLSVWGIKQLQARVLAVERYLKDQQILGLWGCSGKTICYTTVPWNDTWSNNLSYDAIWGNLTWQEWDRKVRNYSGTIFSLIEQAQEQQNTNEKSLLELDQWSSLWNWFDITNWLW

gp70 C.1086 V1/V2 [6] = biological target: T4, gp70 C.1086 V1/V2 (HIV-1 V1V2 on murine leukemia virus gp70)
T4 construct: also called C.gp70 1086C V1V2; C.1086gp70V1V2
T4 chain: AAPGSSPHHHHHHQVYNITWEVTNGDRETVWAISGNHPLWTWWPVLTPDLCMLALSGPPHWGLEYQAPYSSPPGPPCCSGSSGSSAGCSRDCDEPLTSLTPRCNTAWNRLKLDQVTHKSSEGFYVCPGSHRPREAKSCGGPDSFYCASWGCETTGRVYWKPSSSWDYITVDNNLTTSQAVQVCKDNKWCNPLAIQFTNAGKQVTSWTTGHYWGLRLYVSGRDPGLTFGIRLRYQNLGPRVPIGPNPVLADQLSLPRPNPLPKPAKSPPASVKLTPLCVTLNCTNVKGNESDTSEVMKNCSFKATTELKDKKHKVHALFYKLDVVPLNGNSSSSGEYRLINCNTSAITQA

B.62357 gp140C [7] = biological target: T5, B.62357 gp140C
T5 construct: also called B.62357 140C

B.040 gp140C [8] = biological target: B.040 gp140C
B.con gp140CF [9] = biological target: B.con gp140CF
Con 6 gp120 [10] = biological target: Con 6 gp120
B.HXB/BAL gp140CFI [11] = biological target: T6, B.HXB/BAL gp140CFI (HIV-1, UniProt P04578 33-680)
T6 construct: also called B.HxB/Ba gp140 CFI

C.CAP206 gp140CF.12 [12] = biological target: C.CAP206 gp140CF.12 (HIV-1)
C.1086 gp140 [13] = biological target: T7, C.1086 gp140
T7 construct: also called C.1086gp140C

A.9004SS V1/V2 tags [14] = biological target: T8, A.9004SS V1/V2 tags
T8 V1V2 tags construct: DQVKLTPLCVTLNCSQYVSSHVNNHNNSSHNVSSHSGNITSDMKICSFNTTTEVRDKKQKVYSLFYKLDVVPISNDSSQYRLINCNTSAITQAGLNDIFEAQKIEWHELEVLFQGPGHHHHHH

AE.con gp140CF [15] = biological target: AE.con gp140CF; remark: listed apart in the source
AE.97CNG2XF gp140CF [16] = biological target: T1, AE.97CNG2XF gp140CF; remark: listed apart in the source
G.con gp140CF [17] = biological target: G.con gp140CF; remark: listed apart in the source
gp70 B.CaseA2 V1/V2 [18] = biological target: T2, gp70 B.CaseA2 V1/V2
SIV CPZ US-1 gp140CF [19] = biological target: T3, SIV CPZ US-1 gp140CF
gp70 C.1086 V1/V2 [20] = biological target: T4, gp70 C.1086 V1/V2
B.62357 gp140C [21] = biological target: T5, B.62357 gp140C; remark: listed apart in the source
B.040 gp140C [22] = biological target: B.040 gp140C; remark: listed apart in the source
B.con gp140CF [23] = biological target: B.con gp140CF; remark: listed apart in the source
Con 6 gp120 [24] = biological target: Con 6 gp120; remark: listed apart in the source
B.HXB/BAL gp140CFI [25] = biological target: T6, B.HXB/BAL gp140CFI; remark: listed apart in the source
C.CAP206 gp140CF.12 [26] = biological target: C.CAP206 gp140CF.12 (HIV-1); remark: listed apart in the source
C.1086 gp140 [27] = biological target: T7, C.1086 gp140; remark: listed apart in the source
A.9004SS V1/V2 tags [28] = biological target: T8, A.9004SS V1/V2 tags

Measured: binding result

B1: CH01_UA1 (antibody, V domains shown)
VH: EVQLVESGGGVVRPGGSLRLSCAASGFTFDDYGMSWVRQAPGKGLEWVSGINWNGGSTGYADSVKGRFTISRDNAKNSLYLQMNSLRAEDTALYYCARGTDYTIDDQGIRYQGSGTFWYFDLWGRGTLVTVSS
VL: not shown
no binding (tested: 10 ug/ml): AE.con gp140CF [1] | AE.97CNG2XF gp140CF [2] | G.con gp140CF [3] | B.9021 gp140C | gp70 B.CaseA2 V1/V2 [4] | SIV CPZ US-1 gp140CF [5] | gp70 C.1086 V1/V2 [6] | B.62357 gp140C [7] | B.040 gp140C [8] | B.con gp140CF [9] | Con 6 gp120 [10] | B.HXB/BAL gp140CFI [11] | C.CAP206 gp140CF.12 [12] | C.1086 gp140 [13] | A.9004SS V1/V2 tags [14]

B2: CH01_UA2 (antibody, V domains shown)
VH: EVQLVESGGGVVRPGGSLRLSCAASGFTFDDYGMSWVRQAPGKGLEWVSGINWNGGSTGYADSVKGRFTISRDNAKNSLYLQMNSLRAEDTALYYCARGTDYTIDDQGILYQGSGTFWYFDLWGRGTLVTVSS
VL: not shown
no binding (tested: 10 ug/ml): AE.con gp140CF [15] | AE.97CNG2XF gp140CF [16] | G.con gp140CF [17] | gp70 B.CaseA2 V1/V2 [18] | SIV CPZ US-1 gp140CF [19] | gp70 C.1086 V1/V2 [20] | B.62357 gp140C [21] | B.040 gp140C [22] | B.con gp140CF [23] | Con 6 gp120 [24] | B.HXB/BAL gp140CFI [25] | C.CAP206 gp140CF.12 [26] | C.1086 gp140 [27] | A.9004SS V1/V2 tags [28]
